For assay [1], the target named is Tr3DCatch1 (chimeric SpyAvidin tetramer of three core traptavidin subunits and one Dead streptavidin-SpyCatcher subunit) (UniProt P22629). Description: gel shift on SDS-PAGE of unboiled samples, Coomassie staining; SpyAvidin tetramer incubated with the ligand for 1 h at room temperature in PBS; the SpyTag/SpyCatcher link is a covalent isopeptide bond.
The target in assay [2] is Tr (core traptavidin), homotetramer Tr4. Description: mixed refolding, ion-exchange chromatography and SDS-PAGE with or without boiling; subunits refolded from dissolved inclusion bodies (alone or mixed) by dilution into PBS; tetramers separated on Q-HP with a NaCl gradient in 20 mM Tris-HCl pH 8.0; tetramers stay assembled on SDS-PAGE unless boiled.
Assay [3] deals with Tre (core traptavidin with a C-terminal hexaglutamate tag), homotetramer Tre4. The description is as above.

A word on the stoichiometry N: it is a count of units in the complex or per binding partner. Regarding “KTag-AffiHER2-SpyTag (SpyTag-linked affibody against HER2)”, the stoichiometry N in assay [1] was 1. Turning to “Tr (core traptavidin), homotetramer Tr4 (complex)”, in assay [2], the stoichiometry N came out at 4. “Tre (core traptavidin with a C-terminal hexaglutamate tag), homotetramer Tre4 (complex)”: the stoichiometry N in assay [3] is 4.

Values taken from paper PMC4183622.
